Experimental data taken from CN111153994A (WUHAN ABEX BIOTECHNOLOGY CO LTD, dated 2020).

Target: T1, 人TNFα蛋白 (人肿瘤坏死因子) (human, UniProt P01375 77-233)
T1 construct: also called human TNFα
Experiment: ELISA: human TNFα coated on the plate, serially diluted FC9 as primary antibody, HRP goat anti-human IgG-Fc as secondary

T1 sequence (P01375 77-233 limits assumed): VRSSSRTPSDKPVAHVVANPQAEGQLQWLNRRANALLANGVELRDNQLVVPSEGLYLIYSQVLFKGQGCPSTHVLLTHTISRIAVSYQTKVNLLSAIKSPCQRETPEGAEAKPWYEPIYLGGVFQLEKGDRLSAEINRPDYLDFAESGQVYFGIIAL

B1: FC9抗体 (针对人肿瘤坏死因子的人源单克隆抗体) (antibody, human IgG1, kappa, V domains shown)
VH: QLVQSGAEVKKPGASVKVSCKASGYTFTSYYMHWVRQAPGQGLEWMGIINPSGGSTSYAQKFQGRVTMTRDTSTSTVYMELSSLRSEDTAVYYCASFDYWGQGTLVTVSS
VL: EIVLTQSPGTLSLSPGERATLSCRTSQSVSSSYLAWYQQKPGQAPRLLIYGASSRATGIPDRFSGSGSGTDFTLTISRLEPEDFAVYFCQQFGTSSITFGQGTRLEIKR
notes: Point mutant of FC0 in an aggregation-prone region of the heavy chain; Expressed in 293F cells from pVitro2-neo-mcs, purified on Protein A and detected with anti-human IgG-Fc; also called FC9 antibody
For B1, the EC50 was roughly 400 pM.
